Test results from article PMC7113836.

Biological target: HBcS-NadA-CFHbp (Hepatitis B Virus | Neisseria meningitidis strain MC58) (UniProt Q9JXV4)
Test: cryo-EM structure; single particle cryoelectron microscopy of purified HBcS-NadA-CFHbp VLPs; 3.4 Å map; HBc T = 4 crystal structure fitted and refined; method details in Supplementary Materials

Work on “HBcS-NadA-CFHbp (from UniProt Q9JXV4 157-274)” yielded a stoichiometry N of 240 copies.
